Assay results taken from PMC11240526, “Method for B Cell Receptor Enrichment in Malignant B Cells” (Cancers, 2024).
Each block holds one molecule with its values, some of them ahead of it.

Tests used:
[1] = molecular target: CD79a (human (endogenous in Raji)) (UniProt P11912); assay: co-IP; antibody to the bait (anti-CD79a, anti-CD79b or anti-IgM) with Protein G agarose beads; Raji membrane fraction solubilised in 1% Triton X-100 lysis buffer in PBS; overnight at 4 °C; bead eluate read by Western blot, band intensities normalised to protein load
CD79a = molecular target: T1, CD79a (human (endogenous in Raji), UniProt P11912 33-226); assay: as above; conditions: partners not purified
T1 construct: CD79a (Igα), signalling subunit of the B cell receptor, human, endogenous in the Raji B lymphoblastoid cell line; the text prints P11912; also called Igα; Ig-alpha; source: endogenous, Raji cells, membrane fraction solubilised in Triton X-100 or DOC lysis buffer
T1 sequence (looked up): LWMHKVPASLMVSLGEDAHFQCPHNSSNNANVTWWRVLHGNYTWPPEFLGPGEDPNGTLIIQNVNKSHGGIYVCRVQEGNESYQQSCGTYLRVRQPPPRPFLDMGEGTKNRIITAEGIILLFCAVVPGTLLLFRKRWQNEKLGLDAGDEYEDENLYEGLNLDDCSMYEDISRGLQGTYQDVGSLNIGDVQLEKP

- fold enrichment in the bead eluate over input (band intensity normalised to protein load) [1]: 30 fold
Molecule: membrane immunoglobulin M (mIgM) of Raji cells (complex)

- fold enrichment in the bead eluate over input (band intensity normalised to protein load) (CD79a): ~12 fold
B1: CD79b (natural protein, human (endogenous in Raji), UniProt P40259 29-229, looked up)
chain: ARSEDRYRNPKGSACSRIWQSPRFIARKRGFTVKMHCYMNSASGNVSWLWKQEMDENPQQLKLEKGRMEESQNESLATLTIQGIRFEDNGIYFCQQKCNNTSEVYQGCGTELRVMGFSTLAQLKQRNTLKDGIIMIQTLLIILFIIVPIFLLLDKDDSKAGMEEDHTYEGLDIDQTATYEDIVTLRTGEVKWSVGEHPGQE
notes: CD79b (Igβ), signalling subunit of the B cell receptor, human, endogenous in the Raji B lymphoblastoid cell line; also called Igβ; Ig-beta; source: endogenous, Raji cells, membrane fraction solubilised in Triton X-100 or DOC lysis buffer
